Data from the supplement of paper PMC10065799, “High-throughput profiling of sequence recognition by tyrosine kinases and SH2 domains using bacterial peptide display” (eLife, 2023).

Legend:
SHP2-C SH2 = test: SH2 binding enrichment of the phosphorylated peptide, bacterial display (enrichment ratio); higher = better substrate or ligand; peptides without Tyr show the background
c-Src SH2 = test: as above
Grb2 SH2 = Grb2 SH2 (UniProt P62993); test: as above
AncSZ = test: phosphorylation enrichment, bacterial display (enrichment ratio); higher = better substrate or ligand; peptides without Tyr show the background
FGFR3 = FGFR3 (UniProt P22607); test: as above
Sequence of FGFR3 (P22607 whole entry, looked up): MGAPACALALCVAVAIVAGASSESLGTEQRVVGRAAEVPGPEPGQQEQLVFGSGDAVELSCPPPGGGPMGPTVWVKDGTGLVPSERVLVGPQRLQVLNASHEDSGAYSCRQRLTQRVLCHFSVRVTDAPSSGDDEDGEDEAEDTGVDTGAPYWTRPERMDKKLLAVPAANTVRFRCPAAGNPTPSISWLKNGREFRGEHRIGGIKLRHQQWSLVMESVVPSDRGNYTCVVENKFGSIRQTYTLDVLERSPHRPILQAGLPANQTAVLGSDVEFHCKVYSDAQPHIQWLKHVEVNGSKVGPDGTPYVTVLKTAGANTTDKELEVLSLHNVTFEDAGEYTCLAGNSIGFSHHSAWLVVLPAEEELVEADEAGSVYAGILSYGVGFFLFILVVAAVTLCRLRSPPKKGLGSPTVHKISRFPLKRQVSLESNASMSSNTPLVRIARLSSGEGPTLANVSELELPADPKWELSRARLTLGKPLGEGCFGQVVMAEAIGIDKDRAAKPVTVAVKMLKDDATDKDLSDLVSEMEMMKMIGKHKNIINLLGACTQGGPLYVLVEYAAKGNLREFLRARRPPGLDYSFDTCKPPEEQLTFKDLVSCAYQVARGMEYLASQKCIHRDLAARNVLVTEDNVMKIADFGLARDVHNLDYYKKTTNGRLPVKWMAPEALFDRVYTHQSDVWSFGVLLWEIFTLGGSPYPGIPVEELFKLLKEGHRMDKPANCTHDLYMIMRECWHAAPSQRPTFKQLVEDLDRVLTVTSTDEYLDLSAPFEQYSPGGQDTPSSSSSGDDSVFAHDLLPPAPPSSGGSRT

c-Src = test: as above
c-Abl (mouse) = test: as above
EPHB1 = EPHB1 (UniProt P54762); test: as above
Fer (mouse) = test: as above
Hck = Hck (UniProt P08631); test: as above
Sequence of Hck (P08631 whole entry, looked up): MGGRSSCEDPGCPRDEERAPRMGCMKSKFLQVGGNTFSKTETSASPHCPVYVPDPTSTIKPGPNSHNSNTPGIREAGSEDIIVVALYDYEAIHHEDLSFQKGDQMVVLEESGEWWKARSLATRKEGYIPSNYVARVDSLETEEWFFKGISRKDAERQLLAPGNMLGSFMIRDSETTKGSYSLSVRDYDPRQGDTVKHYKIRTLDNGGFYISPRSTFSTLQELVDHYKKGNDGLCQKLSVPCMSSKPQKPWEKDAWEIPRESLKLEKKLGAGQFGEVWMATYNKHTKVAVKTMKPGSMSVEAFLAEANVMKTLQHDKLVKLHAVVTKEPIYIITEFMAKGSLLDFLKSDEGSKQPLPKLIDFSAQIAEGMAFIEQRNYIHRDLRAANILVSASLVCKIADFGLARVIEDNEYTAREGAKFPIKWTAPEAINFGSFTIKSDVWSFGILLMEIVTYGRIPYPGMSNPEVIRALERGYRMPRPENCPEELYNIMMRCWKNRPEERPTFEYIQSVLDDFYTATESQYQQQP

FGFR1 = FGFR1 (UniProt P11362); test: as above
MERTK = MERTK (UniProt Q12866); test: as above
Sequence of MERTK (Q12866 whole entry, looked up): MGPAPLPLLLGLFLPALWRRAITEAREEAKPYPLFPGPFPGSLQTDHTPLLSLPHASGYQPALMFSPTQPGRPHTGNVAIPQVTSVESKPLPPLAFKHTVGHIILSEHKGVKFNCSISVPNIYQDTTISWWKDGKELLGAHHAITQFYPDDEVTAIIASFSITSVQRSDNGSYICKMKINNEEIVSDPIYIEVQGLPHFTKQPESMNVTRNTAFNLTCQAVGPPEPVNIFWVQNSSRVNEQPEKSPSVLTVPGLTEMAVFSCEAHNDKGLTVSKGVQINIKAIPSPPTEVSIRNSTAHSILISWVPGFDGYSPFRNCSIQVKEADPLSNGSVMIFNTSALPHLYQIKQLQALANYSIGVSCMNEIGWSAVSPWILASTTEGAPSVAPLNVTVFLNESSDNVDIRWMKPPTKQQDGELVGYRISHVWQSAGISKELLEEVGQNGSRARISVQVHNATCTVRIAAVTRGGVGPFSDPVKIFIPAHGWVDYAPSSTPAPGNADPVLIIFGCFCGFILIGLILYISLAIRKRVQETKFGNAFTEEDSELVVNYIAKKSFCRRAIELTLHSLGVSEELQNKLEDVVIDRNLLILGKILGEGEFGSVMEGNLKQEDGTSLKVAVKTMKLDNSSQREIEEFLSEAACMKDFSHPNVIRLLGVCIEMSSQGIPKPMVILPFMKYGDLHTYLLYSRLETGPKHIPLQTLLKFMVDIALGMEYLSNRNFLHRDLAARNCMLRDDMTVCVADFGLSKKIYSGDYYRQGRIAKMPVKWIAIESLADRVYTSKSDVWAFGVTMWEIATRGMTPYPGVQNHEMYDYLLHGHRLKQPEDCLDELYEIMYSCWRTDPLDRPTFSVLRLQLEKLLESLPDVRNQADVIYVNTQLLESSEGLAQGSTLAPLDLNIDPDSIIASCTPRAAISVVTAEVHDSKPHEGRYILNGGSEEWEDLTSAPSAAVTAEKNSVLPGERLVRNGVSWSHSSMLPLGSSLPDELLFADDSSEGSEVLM

Fyn = Fyn (UniProt P06241); test: as above
Sequence of Fyn (P06241 whole entry, looked up): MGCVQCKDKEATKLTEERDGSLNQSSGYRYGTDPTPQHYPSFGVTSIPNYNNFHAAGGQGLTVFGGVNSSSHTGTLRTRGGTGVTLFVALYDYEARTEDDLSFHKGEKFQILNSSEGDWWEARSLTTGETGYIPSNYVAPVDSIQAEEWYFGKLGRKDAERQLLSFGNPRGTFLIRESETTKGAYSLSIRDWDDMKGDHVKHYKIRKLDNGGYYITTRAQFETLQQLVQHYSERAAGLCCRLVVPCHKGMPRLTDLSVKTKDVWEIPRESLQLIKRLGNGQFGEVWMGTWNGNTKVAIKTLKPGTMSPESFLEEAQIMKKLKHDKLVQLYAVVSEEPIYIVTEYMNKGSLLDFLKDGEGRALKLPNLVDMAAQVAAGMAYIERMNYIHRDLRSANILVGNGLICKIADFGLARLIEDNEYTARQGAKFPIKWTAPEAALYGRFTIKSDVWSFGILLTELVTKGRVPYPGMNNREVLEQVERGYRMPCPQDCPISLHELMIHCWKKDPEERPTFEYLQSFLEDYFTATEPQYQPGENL

EPHB2 = EPHB2 (UniProt P29323); test: as above
Fes = Fes (UniProt P07332); test: as above
Sequence of Fes (P07332 whole entry, looked up): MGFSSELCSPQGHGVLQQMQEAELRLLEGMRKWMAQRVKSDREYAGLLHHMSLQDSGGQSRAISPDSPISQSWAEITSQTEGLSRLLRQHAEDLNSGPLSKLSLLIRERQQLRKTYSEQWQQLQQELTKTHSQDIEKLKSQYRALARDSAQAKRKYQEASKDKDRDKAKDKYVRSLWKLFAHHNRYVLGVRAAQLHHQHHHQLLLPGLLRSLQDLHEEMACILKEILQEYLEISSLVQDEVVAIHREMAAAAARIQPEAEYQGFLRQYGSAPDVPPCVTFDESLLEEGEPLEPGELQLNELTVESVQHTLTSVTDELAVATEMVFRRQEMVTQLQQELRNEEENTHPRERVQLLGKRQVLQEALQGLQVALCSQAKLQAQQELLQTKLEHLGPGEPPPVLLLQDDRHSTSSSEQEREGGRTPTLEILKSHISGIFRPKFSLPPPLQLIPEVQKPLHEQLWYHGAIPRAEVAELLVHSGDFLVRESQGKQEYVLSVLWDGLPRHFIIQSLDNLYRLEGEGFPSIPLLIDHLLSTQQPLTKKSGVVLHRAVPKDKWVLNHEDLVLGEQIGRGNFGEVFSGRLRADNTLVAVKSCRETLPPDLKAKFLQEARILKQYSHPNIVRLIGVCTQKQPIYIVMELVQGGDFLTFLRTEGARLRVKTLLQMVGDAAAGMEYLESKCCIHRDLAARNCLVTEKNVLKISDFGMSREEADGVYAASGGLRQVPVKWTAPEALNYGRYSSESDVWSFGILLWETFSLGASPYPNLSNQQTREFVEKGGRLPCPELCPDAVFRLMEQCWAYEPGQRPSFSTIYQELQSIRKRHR

Jak2 = Jak2 (UniProt O60674); test: as above
Sequence of Jak2 (O60674 whole entry, looked up, the tested form may be a part): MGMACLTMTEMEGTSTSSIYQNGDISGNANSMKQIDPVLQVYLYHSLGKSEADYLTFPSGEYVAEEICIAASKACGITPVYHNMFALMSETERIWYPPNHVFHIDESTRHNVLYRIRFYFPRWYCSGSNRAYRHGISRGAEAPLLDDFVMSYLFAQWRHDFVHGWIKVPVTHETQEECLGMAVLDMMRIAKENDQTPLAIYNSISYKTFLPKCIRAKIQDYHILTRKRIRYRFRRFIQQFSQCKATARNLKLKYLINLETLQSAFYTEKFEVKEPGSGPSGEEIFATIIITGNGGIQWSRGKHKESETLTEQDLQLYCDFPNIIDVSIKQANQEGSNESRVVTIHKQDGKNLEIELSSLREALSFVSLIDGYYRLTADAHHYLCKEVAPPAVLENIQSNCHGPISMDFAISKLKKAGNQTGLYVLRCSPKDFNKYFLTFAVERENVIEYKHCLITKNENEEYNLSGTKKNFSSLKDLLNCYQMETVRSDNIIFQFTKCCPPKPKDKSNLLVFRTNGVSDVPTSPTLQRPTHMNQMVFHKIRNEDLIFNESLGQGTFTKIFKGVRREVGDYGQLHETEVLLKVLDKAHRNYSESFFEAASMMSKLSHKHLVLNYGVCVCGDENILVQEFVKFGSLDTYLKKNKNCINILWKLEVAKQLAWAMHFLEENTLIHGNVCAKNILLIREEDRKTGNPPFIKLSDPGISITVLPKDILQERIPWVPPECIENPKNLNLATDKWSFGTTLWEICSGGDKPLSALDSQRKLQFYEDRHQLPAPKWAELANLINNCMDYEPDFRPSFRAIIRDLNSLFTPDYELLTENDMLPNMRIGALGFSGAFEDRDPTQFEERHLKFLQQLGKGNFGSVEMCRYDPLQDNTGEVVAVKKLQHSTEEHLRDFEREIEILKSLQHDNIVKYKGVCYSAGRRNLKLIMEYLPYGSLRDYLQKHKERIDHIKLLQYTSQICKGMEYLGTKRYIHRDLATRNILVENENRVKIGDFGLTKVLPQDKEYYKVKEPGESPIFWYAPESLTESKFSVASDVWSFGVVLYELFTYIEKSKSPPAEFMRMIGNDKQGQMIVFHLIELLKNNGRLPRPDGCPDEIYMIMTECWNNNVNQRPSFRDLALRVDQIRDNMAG
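For SH2 binding enrichment of the phosphorylated peptide, bacterial display in this document: peptide library displayed on the E. coli surface as eCPX fusions, selected cells deep-sequenced, score is each peptide's frequency after selection divided by its frequency in the input.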
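For phosphorylation enrichment, bacterial display in this document: 11-residue human phosphosite peptides and single-mutation variants displayed on the E. coli surface, counted by deep sequencing, each peptide's frequency after selection divided by its frequency in the unselected input library; frequency after pTyr selection over input frequency; kinase dosed for 20-30% of maximal phosphorylation in three min.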

Sequence of Grb2 SH2 (P62993 whole entry, looked up): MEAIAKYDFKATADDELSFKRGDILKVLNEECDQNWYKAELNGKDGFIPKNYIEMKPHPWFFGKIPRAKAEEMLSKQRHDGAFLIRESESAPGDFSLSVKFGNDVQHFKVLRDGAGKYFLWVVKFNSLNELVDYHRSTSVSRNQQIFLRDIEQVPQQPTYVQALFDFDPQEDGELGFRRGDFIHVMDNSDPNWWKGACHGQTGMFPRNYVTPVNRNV

Row | Sequence | SH2 binding enrichment (SHP2-C SH2) | SH2 binding enrichment (c-Src SH2) | SH2 binding enrichment (Grb2 SH2) | phosphorylation enrichment (AncSZ) | phosphorylation enrichment (FGFR3) | phosphorylation enrichment (c-Src) | phosphorylation enrichment (c-Abl (mouse)) | phosphorylation enrichment (EPHB1) | phosphorylation enrichment (Fer (mouse)) | phosphorylation enrichment (Hck) | phosphorylation enrichment (FGFR1) | phosphorylation enrichment (MERTK) | phosphorylation enrichment (Fyn) | phosphorylation enrichment (EPHB2) | phosphorylation enrichment (Fes) | phosphorylation enrichment (Jak2)
1 | GTPVMYTYDEY [COL10A1_Y623] | 0.843 | 2.67 | 0.954 | 1.26 | 0.893 | 2.42 | 0.68 | 0.708 | 0.575 | 1.01 | 0.743 | 0.804 | 1.76 | 0.978 | 1.09 | 1.04
2 | GYEEAYSVFKK [PAFAH1B1_Y28] | 1.25 | 2.54 | 0.831 | 1.35 | 0.681 | 4.68 | 1.96 | 0.498 | 0.339 | 4.07 | 0.491 | 0.654 | 2.37 | 0.605 | 0.947 | 0.754
3 | HAVFIYDICHV [TWNK_Y508_V507I_YF] | 0.793 | 0.619 | 1.34 | 1.19 | 0.956 | 2.49 | 1.89 | 3.04 | 4.14 | 2.59 | 0.54 | 3.24 | 3.92 | 3.98 | 1.56 | 1.26
4 | HDKEFYSVHNK [MET_Y1235_Y1230H_YF] | 0.466 | 0.395 | 0.734 | 1.14 | 0.549 | 0.429 | 0.309 | 0.455 | 0.629 | 1.03 | 0.804 | 0.467 | 0.646 | 0.643 | 0.842 | 0.513
5 | HEEDNYIEMIP [NWD2_Y566_L569M] | 0.747 | 0.467 | 0.553 | 3.02 | 3.82 | 1.16 | 1.86 | 1.68 | 0.938 | 0.822 | 3.93 | 1.13 | 0.67 | 1.19 | 2.85 | 2.39
6 | HEVHIYEKSGA [ARPC1B_Y35] | 0.667 | 2.29 | 0.817 | 1.38 | 0.993 | 1.48 | 1.69 | 1.1 | 1.03 | 1.68 | 0.673 | 0.77 | 1.01 | 0.611 | 1.74 | 1.06
7 | HFGCVYYGTLL [MET_Y1093_H1094Y] | 0.715 | 0.578 | 0.841 | 1.88 | 2.19 | 8.21 | 1.82 | 1.5 | 1.76 | 2.43 | 2.69 | 1.11 | 3.77 | 1.42 | 2.43 | 2.13
8 | HFPFQCHRQLF [F12_Y53_Y53C_YF] | 1.01 | 0.951 | 1.23 | 1.76 | 1.4 | 0.692 | 1.09 | 0.875 | 0.587 | 1.07 | 0.745 | 0.885 | 0.535 | 0.758 | 1.64 | 1.1
9 | HGDSAYHSQRH [ERBB3_Y1132_R1127H] | 0.896 | 0.508 | 0.996 | 1.2 | 0.425 | 0.824 | 1.32 | 0.63 | 0.276 | 0.648 | 0.808 | 0.789 | 0.327 | 0.479 | 1.22 | 1.03
10 | HGEAVYSRDCV [XPC_Y676_R671H] | 0.716 | 0.586 | 1.18 | 0.697 | 0.687 | 3.78 | 0.66 | 0.473 | 0.664 | 2.75 | 0.621 | 0.89 | 3.49 | 0.51 | 0.819 | 0.786
11 | HKGASYVFRLS [PTPRD_Y891] | 2.11 | 0.97 | 1.56 | 1 | 0.818 | 0.583 | 0.935 | 0.593 | 0.412 | 0.468 | 0.536 | 0.512 | 0.539 | 0.791 | 1.34 | 1.26
12 | HKNNNYEPNLF [BRCA2_Y57] | 0.502 | 0.413 | 0.637 | 0.739 | 0.508 | 0.579 | 0.563 | 1.95 | 0.62 | 0.61 | 1.2 | 0.539 | 0.577 | 0.89 | 0.767 | 0.477
13 | HLTLVYGGIFL [FBP1_Y259_R255L] | 0.883 | 0.544 | 0.808 | 1.61 | 1.15 | 2.71 | 1.4 | 0.743 | 0.699 | 2.09 | 0.745 | 0.507 | 2.72 | 0.849 | 1.81 | 1.96
14 | HLVLNYGVCIC [JAK2_Y613_V617I] | 0.597 | 0.614 | 0.985 | 1.52 | 1.46 | 0.576 | 1.52 | 1.39 | 0.67 | 0.484 | 0.607 | 0.535 | 0.551 | 0.92 | 2.09 | 1.68
15 | HLVSEYQQFQD [TUBB3_Y422_D417H_YF] | 0.75 | 0.544 | 0.869 | 1.07 | 0.54 | 0.728 | 0.559 | 0.819 | 0.338 | 0.524 | 0.741 | 0.336 | 0.577 | 0.916 | 0.974 | 0.917
16 | HLWRIYYDITD [MMP27_Y307] | 1.01 | 0.941 | 0.869 | 3.29 | 3.87 | 4.21 | 1.86 | 9.72 | 1.64 | 3.14 | 4.63 | 1.77 | 2.6 | 4.96 | 3.16 | 3.36
17 | HNLDFYKETTN [FGFR3_Y648_K650E_YF] | 1.39 | 0.995 | 0.841 | 1.23 | 0.915 | 1.14 | 1.14 | 0.891 | 0.656 | 0.53 | 0.645 | 0.662 | 0.731 | 0.496 | 1.5 | 1.48

Row | Sequence | SH2 binding enrichment (SHP2-C SH2) | SH2 binding enrichment (c-Src SH2) | SH2 binding enrichment (Grb2 SH2) | phosphorylation enrichment (AncSZ) | phosphorylation enrichment (FGFR3) | phosphorylation enrichment (c-Src) | phosphorylation enrichment (c-Abl (mouse)) | phosphorylation enrichment (EPHB1) | phosphorylation enrichment (Fer (mouse)) | phosphorylation enrichment (Hck) | phosphorylation enrichment (FGFR1) | phosphorylation enrichment (MERTK) | phosphorylation enrichment (Fyn) | phosphorylation enrichment (EPHB2) | phosphorylation enrichment (Fes) | phosphorylation enrichment (Jak2)
18 | HNQDGYSFLSR [LDLR_Y845_P848L_YF] | 2.83 | 6.05 | 0.784 | 0.867 | 0.657 | 0.435 | 0.635 | 0.837 | 0.427 | 0.841 | 0.765 | 0.914 | 0.654 | 1 | 0.795 | 1.25
19 | HNVAIYEGFAL [ACTC1_Y168_P166A_YF] | 1 | 0.509 | 0.877 | 1.28 | 0.781 | 9.03 | 9.06 | 11.1 | 17 | 9.95 | 0.56 | 8.57 | 13.3 | 11.2 | 1.3 | 0.972
20 | HPFNSYTFPRL [PAK5_Y316_S312P_YF] | 1.35 | 1 | 0.642 | 1.3 | 0.786 | 0.602 | 1.05 | 0.683 | 0.461 | 0.474 | 0.531 | 1.41 | 1.19 | 0.64 | 0.957 | 0.995
21 | HQPGEYIFHAE [FLT3_Y416] | 0.743 | 0.445 | 0.668 | 1.77 | 1.28 | 0.852 | 1.11 | 0.887 | 0.795 | 1.21 | 0.819 | 0.74 | 0.915 | 1.12 | 1.29 | 1.29
22 | HRGSLYLAIEF [TEK_Y899_Y897S_YF] | 0.683 | 0.536 | 0.956 | 1.23 | 0.902 | 0.489 | 1.19 | 0.641 | 0.748 | 0.48 | 0.589 | 0.538 | 0.538 | 0.491 | 1.55 | 1.28
23 | HSGIFYKPESL [L2HGDH_Y103_YF] | 0.831 | 0.507 | 0.641 | 1.34 | 0.934 | 1.45 | 3.79 | 0.793 | 1.05 | 0.704 | 1.11 | 0.934 | 0.642 | 1.11 | 1.82 | 2.08
24 | IEDNKYTAREG [HCK_Y411_E410K] | 0.828 | 0.573 | 0.924 | 0.926 | 0.545 | 0.506 | 0.756 | 0.588 | 0.392 | 0.469 | 0.558 | 0.356 | 0.507 | 0.543 | 1.03 | 0.788
25 | IFHENYNAGTY [CFI_Y421] | 0.676 | 0.625 | 0.788 | 0.804 | 0.588 | 0.655 | 0.603 | 0.656 | 1.01 | 0.717 | 0.557 | 0.533 | 0.664 | 0.585 | 1.02 | 0.783
26 | IFLADCRIMEG [ALOX12B_Y318_Y318C_YF] | 0.62 | 0.461 | 0.886 | 1.33 | 1.02 | 0.525 | 0.894 | 0.803 | 0.594 | 0.662 | 0.654 | 0.5 | 0.579 | 0.664 | 1.48 | 1.2
27 | IFLADYRIMEG [ALOX12B_Y318_YF] | 1.12 | 0.987 | 1.16 | 0.689 | 0.787 | 0.528 | 0.641 | 0.454 | 0.453 | 0.421 | 0.814 | 0.478 | 0.408 | 0.523 | 0.984 | 0.782
28 | IFRAAYFGVFD [SLC25A4_Y191_YF] | 0.588 | 0.546 | 0.832 | 0.985 | 0.717 | 0.438 | 0.761 | 0.751 | 0.523 | 0.457 | 0.499 | 0.447 | 0.497 | 0.594 | 1.25 | 0.891
29 | IGERTYGQVYK [CDK13_Y716_G714R] | 0.675 | 0.565 | 0.866 | 0.507 | 0.41 | 6.07 | 0.536 | 0.409 | 0.392 | 3.64 | 0.381 | 0.408 | 9.16 | 0.416 | 0.555 | 0.516
30 | IGKAGYTDKVV [ENO1_Y236] | 0.606 | 0.371 | 0.757 | 0.531 | 0.508 | 0.335 | 0.481 | 0.398 | 0.365 | 0.388 | 0.456 | 0.305 | 0.359 | 0.395 | 0.642 | 0.632
31 | IGNGYYFRVFS [MYBPC3_Y1136] | 0.861 | 0.561 | 0.977 | 1.34 | 0.947 | 0.359 | 0.967 | 0.729 | 0.556 | 0.557 | 0.514 | 0.449 | 0.496 | 0.667 | 1.43 | 1.44
32 | IHSGIYFKPES [L2HGDH_Y102_YF] | 0.829 | 0.777 | 0.747 | 1.39 | 0.744 | 1.96 | 8.52 | 0.996 | 0.497 | 2.14 | 0.702 | 6.44 | 1.72 | 0.674 | 0.887 | 2.59
33 | IHSGIYYKPES [L2HGDH_Y102] | 0.539 | 0.67 | 0.762 | 1.45 | 1.38 | 4.54 | 18.7 | 3.93 | 0.943 | 5.38 | 1.53 | 11.7 | 6 | 2.02 | 0.752 | 3.48
